In the domain aggregation screens of Martell et al. (2025):

assay: soluble fraction after stress (log2 fold change); higher = more stays soluble; pooled small domains, quantitative proteomics; details: stress: pH 4
Method in brief: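 Aggregation propensity here comes from the fold change in the soluble amount of each small protein domain after acid stress, measured in pooled custom libraries by high-throughput quantitative proteomics. The acid stress was pH 4. On the log2 scale, higher values mean more of the domain stayed soluble.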

Compared with “HMTNIQFINLKMTDNHPWIHQYIKDIILPPQTRIVMIKRNDIKTIPKGERRIEKDDELILSAFESQT”, “HMTNKKIILEIFQNSDKPLIVEEISKKMFEKTGKKMILSTIYRNLKNMEDVGILKKIYNEDGSYMYIF” is higher in “soluble fraction (log2)” value: -1.27 for the first, -1.07 for the second.

Compared with “HMTNKQEYAYQWLKSSIIENKIKPSTLLVERHLSEMLHISRTPVRTALMRLADEGFVVISPGRGMVVA”, “HMTNQEFNAAFKPFLDYFPTTEMTKEKINIYYLALSDLSKEQLGSAFISMVKNRVYKNFPQVAEIRQYATN” is lower in “soluble fraction (log2)” value: -0.0492 for the first, -0.456 for the second.

Going from “HMTNTDYPGKVVPVDPDGKTLKPDGDASYNDKPGTKVKTPTVPGYTAEVPNVEVPVGGGDIKVTYHKKPV” to “HMTNVYSLIGKRGIVVEDIDWQKGTGQVKIDGELWSVKTNEQINISKGTEVEVENIEGVKVFVKPI”, the “soluble fraction (log2)” value falls from 0.0461 to -0.458.

Going from “HMTNYGTVRPGARGQAVTALQQALIRHGYKLTADGIYGRATRQAVRAFQQKHKLKVDGIVGSKTWALLLAD” to “HMTPDGNATVWSANGYGVRLRTGPGKGYAIIGVYSVGTTVKVLERGPAGGWDHIQVGSRVGYMMNEFLHYY”, the “soluble fraction (log2)” value rises from -0.0192 to 0.422.

Going from “HMTPDLSEFKERLRQILPGEPIEVRTANDGIVLSGTVTSIAALDRALDLAERYAPDKVSNLLSVG” to “HMTPELTAEEREVLSLLGDEPRTLAELIAASGRDYAALSVLLMGLELSQAVRQLPGNRYERF”, the “soluble fraction (log2)” value falls from 0.365 to -1.36.

“HMTPGPFLVYITGAVERPNVLVTLDYGSRVIDALNAAGGSRIDANLDLVNLAQRLVDGDQIHVPTLR” and “HMTPGPYETLKPAPLGSYIEPKIGFATAIEIARKEAVQLGIKTEAGGIWYGGDFPFYNVSFFDPDD” are within 0.2 log units of each other in “soluble fraction (log2)” value: -1.1 for the first, -0.985 for the second.

“HMTPKVTVPDVTGQTFSSAKQILESLGFTVKQQGSTDETDQVIDQNPTSGEADKGATITLTTKSS” and “HMTPPAQQPHEGLPTDETATDAKTLVQKSRWWLEEEQRQREAGNTAYAERIRLALIQLLYRAERA” are within 0.2 log units of each other in “soluble fraction (log2)” value: -0.139 for the first, 0.0525 for the second.

First: HMTPQNAAAVLRYLSSGAIKGVGPSTAQRIVEKFGAESLDIIQNKPEELATIRGISLSKALAVSEEYNKQY
Second: HMTPTFSNQDLIKAGLAGSPVAKRRRERLGELLGIGYGNAKQLLKRLDLFAIDRPTFERAVAQLDQEGK
The “soluble fraction (log2)” value of the first is lower: 0.0689 for the first, 0.414 for the second.

Going from “HMTPVSQIATKDIEEKIDSLSDEYKDPFILHFKGFKYKEIADQLDIPIGTVKSRIFIARKKLIDLLPDY” to “HMTQEHDESVNLGKRLLDQALSRFGTSYRQLKKSEIKRILQSSGASTFKYILHQIGLGNRVPLAIANLIV”, the “soluble fraction (log2)” value rises from -0.391 to -0.0152.

First: HMTQEMPAEVKKKADAFNNAMDEENYTEAKAILAELEQNTAPSYPLLLQMQTRYAFETASWE
Second: HMTQFSASSERAGAGGAYRTTLRAMEQNGDLLQISILLPDAVTAKHAATVWPERAQAIYTAILSELLK
The “soluble fraction (log2)” value of the first is lower: -0.974 for the first, -0.167 for the second.

First: HMTQGIDQISFSQFLDKVQSGEVTDVRISGSDITGTLKTGGKFETVAGNYEKIWDLLRENKVVFVVDSP
Second: HMTQNSAITNRVLYMQRTLRQYGYAVPESGNFDRTTRAHAAEFLYNATGLPVRENQSVQEFYRAFQRVQG
The “soluble fraction (log2)” value of the first is lower: -0.309 for the first, 0.203 for the second.

“HMTQRRLQSELDSIPGVGAGTRTKLLRTLGSVDAVLRASEAELLAAGANRRQVASIQAHAAAVER” and “HMTQSQSLQSQFEQLEKAYQDNLHLLSPKQKLIIQEAGKIIQQLPQQAQIQAKVNLYQSLSAEISKESQQ” are within 0.2 log units of each other in “soluble fraction (log2)” value: 0.0567 for the first, -0.107 for the second.

Going from “HMTQTDINQIETLVHEGNKLAAVKLLMDTAHIGLKEAKDIIDNFFLGKQTDLQAAVAQVQTR” to “HMTRHIQVNDSIASTPIEDVYFSTRTYNALLNNGISVIGDLSKYTHDDLYASFQGLGRAGVLEIEAYLRQD”, the “soluble fraction (log2)” value falls from -0.722 to -1.32.

Compared with “HMTRHSSVDFAGYILRNKENEPIFGFGKHKGKTVVEVLQREQGYFGWLMEADFPLYTKKVLTAIRLNTLNS”, “HMTRLDLQNAFRVLPPEIQPAAVLFFLQERKQREIAKILGIGLPLVKYRIRKARELLAQFLRKEA” is lower in “soluble fraction (log2)” value: 0.316 for the first, -0.073 for the second.

Compared with “HMTRNEFLTALRGRLSALPKEEQDAALKYYEEYFDEAESEEDAARQLGSPDSIAEKILADYA”, “HMTRQNTAVQQSDMAHHKASELTEGMSIVHSHFGRGTIISIETADDPRVTVDFSSEGRKTMLLRFAKFAIE” is lower in “soluble fraction (log2)” value: -0.00949 for the first, -1.08 for the second.

“HMTRQRQLIYNIIQRADDHPTAEMIYARAKAEMPSIAFGTVYRNLKLMVDAGEILHIPVAGEPDRYDK” and “HMTRVANIPYSEFLKLVETDKINDVSMVGKTISGHLDDGTKFSTYTPPNDPNLIDKLSKHNVIIKAGPE” are within 0.2 log units of each other in “soluble fraction (log2)” value: 0.142 for the first, 0.0499 for the second.

Going from “HMTRVDKLQTWLSLPREQRDWDEGALMLLQLTGNKIMYRNLSVNPEGKANFIEGKLQQYLEFRLA” to “HMTSAHEKAFDLFDGGKLSEKALLIAVGAERSGFELAGDLRLRTLTAFEDGRLSEDAMIKLL”, the “soluble fraction (log2)” value falls from -1.16 to -1.5.

Going from “HMTSAIAEGTVIRLTQSTNIRESMSEDAPKVATAFSGEKVTVIMSYAEGWTKVTYGDKTGYIKTELL” to “HMTSAPHHIAAVLRDAIYRGVLEEGGPLHQARIAQSLGVSPIPLREALRLLETEGLVEFRGYRGAFVT”, the “soluble fraction (log2)” value falls from -0.443 to -0.8.

Going from “HMTSDADSLRDKTGYVAEQVTSKGGKVNLYDGGFDSLYSARSTGETISTGTEIRVVDPGGGNMLVVEPV” to “HMTSDYEPSEKDEKAVIGIAFLRNTDVYDVDIDKAEAIKALKANNDIYQKFVKFFPFVKLPSLYDDFQ”, the “soluble fraction (log2)” value rises from -0.356 to -0.109.

Compared with “HMTSGPAWPALSAQQRSVLAPLQRDWHTIDAARKAKWLEVAARFPSMPAEERQRVQERMAEWA”, “HMTSKIIIGDSYSKINKLLGEPENMKKRKFLDNEYLMVLYSINKKNYRLYFKDNILFELEDI” is lower in “soluble fraction (log2)” value: -0.0144 for the first, -0.582 for the second.

“HMTSLQDLLEELRVIRETLTGSQVLSDMQLFSQLRNLGDIKAALTRMQDNPAAARMVGEVDKLLETMFAS” and “HMTSLSYINDLVTGATAQGLYRIVVPNQFMDDNMANVLRRTYGYQVQSRTSLMGTFDDYIISWAPPM” are within 0.2 log units of each other in “soluble fraction (log2)” value: -1.56 for the first, -1.59 for the second.

Compared with “HMTSMTHLGRHPDSEISLDDISVSRRHAEIERQGHEYVLRDSGSLNGTYVNQQRVDSVVLQQGDEIL”, “HMTSPLQIHPNPATKHIELGLESPEVVLIKDINGKTVYQELVAPNQYIDIEHLKNGIYFIESKNKFGKLIK” is higher in “soluble fraction (log2)” value: -0.277 for the first, 0.29 for the second.

Going from “HMTSPNPLIRSTTPGLETNKKGGIIVDENEMSTRENVFAGGDAVTGAATVILAMGAGKKAAAAIDAKLQN” to “HMTSPQGIERFLASGVIEGVGKAMAARIVAVFGGQTLEIIEKQPHRLREVRGIGVKTAEKIHASYQEKA”, the “soluble fraction (log2)” value falls from 0.22 to -0.203.

First: HMTSPVEDLLDKAIQLYREENFEEAIAKWEEVLALDPSKLEAKFNIEIAQDRIKEKQIQEDLKSS
Second: HMTSQVTVHVVGAVEKPGVVTLDAPSRVQDALEAAGGALPEAELSGVNLARELFDGEQIVVPAQGEDV
The “soluble fraction (log2)” value of the first is lower: -0.935 for the first, 0.0598 for the second.

“HMTSSVIIPKLIGKTEEEAKVALAGLNVQVLYETHGDQANGIVIKQSFEEGTKVIKGVSIVITVNKVS” and “HMTSTEQEILIEHMVDRLPALRKKYGISQTELGEKIGLSRQTISAIERKTTPLTWTTMLAILMFFT” are within 0.2 log units of each other in “soluble fraction (log2)” value: -0.256 for the first, -0.425 for the second.

Going from “HMTSTSVKYVNSSSGLNVRKGPSTSYDKVTTLVNGTKVTVISTNNGWSKITSGSITGYVSSQYLSSSS” to “HMTSVAYVIDRINKIQNVYSELEALGLKDEFEKILSNIEDLSKKDIREIKTLLKTKGVIKNLDDLNVKL”, the “soluble fraction (log2)” value falls from -0.284 to -1.24.

First: HMTSVQDLLRNGDRVGYQNGSTVKYWLEEMGFHKKDLLGYVTVEEYAEALQRGSGNGGVSAIVD
Second: HMTTARERVYKTLQQWIVNGTLLPEERLNDVELARYFSVSRTPVREALQMLAEQKLVKMVPSSGTFVA
The “soluble fraction (log2)” value of the first is lower: -1.7 for the first, -0.0644 for the second.

“HMTTELDTTAITPIIQKVLKANPDVVAKYKAGQQQVIGFLMGQVMRELSTKPNPKELQSLIVAQLQQA” and “HMTTGEIIQRERTRLGLSQEKLAEQVGVSRQAVSKWELGDAVPDTDKLVPLARTLGISVDTLLD” are within 0.2 log units of each other in “soluble fraction (log2)” value: -0.0703 for the first, 0.0499 for the second.

Compared with “HMTTGGAEELGRTERKIVEQVGRGLSNREIAQVLGLSEGTVRNYLSTILGKLGLRDRTQLAIWSVQTGFAA”, “HMTTHERHEIIELLRQVGDPMRPKEISEALGKPSGAIRFLLSKLTEEGAIKKTGYGQYTYIP” is higher in “soluble fraction (log2)” value: -0.371 for the first, -0.0635 for the second.

First: HMTTLTPIGKMKGEIDGDFEAFYLAVDKDGQVYLNRDPDYSENRYEKSRGWELVTREQLAVYEKELHFIP
Second: HMTTMYKSDVKGINYDVKAKSWFLRITFNGNQIPIGHFKTEEDAINVKQQLIPYIESKDYTSILAVKAKYS
The “soluble fraction (log2)” value of the first is lower: -0.25 for the first, ≥ 0.43 for the second.

First: HMTTPDIIVPDVKGMTVAEAQKALEEKGFKVKLEEMTQEGAVPGDVIRIDPVAGTKRKEGAKITLLIARG
Second: HMTTQTGTVKWFNEGKGFGFIAPDDGGKDLFAHFKEIQGTGFKTLAENQRVEFEVTQGQKGPQASKI
The “soluble fraction (log2)” value of the first is higher: -0.0525 for the first, -0.469 for the second.

“HMTTQTTKYVNTTAGLNVRTGPSTSYAKIVTLSYGQSVNVLSTSNGWSKINYNGSTGYVSSQYLQSTKPS” and “HMTTSNPMNVTSAEAAFDNGTDRLNAFISGRTTSEERSTYFPLFVRETKEDFLRAVGRFNEYIANHG” are within 0.2 log units of each other in “soluble fraction (log2)” value: 0.0265 for the first, 0.0839 for the second.

“HMTTTAGTAVVQTGNSGKLNLREQAYSNAGILGRYSNGTIVTVLQKGSAWSYVEVQGQKGYMMSKFLRFT” and “HMTTTFGWENLVGEKGIAATDLHPSGWVTVKDQRVFVVSEGTFIEEGKEVEIMNVDGNRIVVREFKN” are within 0.2 log units of each other in “soluble fraction (log2)” value: -0.386 for the first, -0.46 for the second.

Going from “HMTTTPTSQMVTELRSRGWTLRALAQRLGVGHASINRWANGVTPDRDLVAALRALVASGEVP” to “HMTTTYEINDEMLKPLILEIFNKSKQRFGSTKIAPVLKREGYTASIAKVKTLMNELGIKPVNA”, the “soluble fraction (log2)” value rises from -0.00752 to 0.206.

“HMTTTYTVPKVTGMTLEEAREDPDVVGRFTIVEGEKVTSDTVPVGQIVSQEPAAHRQVGEDGLTITVNIS” and “HMTTVKDRVYEILKREIVLGKLKPGEPINIAVLSTKLNISSAPLREALNMLSRDGLVTLNPRKHAAVSE” are within 0.2 log units of each other in “soluble fraction (log2)” value: -0.2 for the first, -0.0431 for the second.

Going from “HMTTVRLNATVPPELALQRLDRVARELFPEYSRNRLQQWIRSGELLVNGSPSGVRDKVPLGAELAVAANLE” to “HMTTVSINTTGIITASTIRASSALYPPLYTTVQRDAGTFSAGAIIFNSTTSKLEFYDGTTWQSLPG”, the “soluble fraction (log2)” value rises from -0.343 to 0.285.

Going from “HMTTVTVGSKVRVKAGATFSDGAKPFAEVYNTVYDVQLLSHNGKEARIGIGDQWTGWIYISDLYLANQPAP” to “HMTVEMYIGKTANVLETVTENNGRIAIFGEEWQAKSLNGETIEKGAQAKIVKNDSIIMYVVPI”, the “soluble fraction (log2)” value falls from -0.101 to -0.367.

For “HMTVGENTYELIKKDIIFGVLPPLKKLKLQELKKIYNASVSTLREILSRLTGDGFVFSEEQKGFYVSPV”, the “soluble fraction (log2)” value was -0.33.
